According to patent US20190256843A1 (AGILENT TECHNOLOGIES, published 2019):
Values belong to the binder of their own block, whether it stands above or below them.

Target: T1, negative control phosphoprotein AGPADAPAGAVVGGG[S^P/S]PRGRPGPVPAPGLLA fused to N-terminal split mCherry (central residue (position 16 of SEQ ID NO:59) printed as [S^P/S]: phosphoserine with SepOTSλ, serine with tRNA^supD)
T1 construct: also called n.c; (14-3-3 experiment); negative control for the 14-3-3 experiment; not shown: N-terminal split mCherry and linker
T1 chain: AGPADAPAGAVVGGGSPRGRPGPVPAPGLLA
Test: clonal BiFC split mCherry (negative control of the 14-3-3 experiment)

- binding result: no binding
B1: human 14-3-3β fused to C-terminal split mCherry (C-mCh) with C-terminal 6xHis tag (other)
chain: MTMDKSELVQKAKLAEQAERYDDMAAAMKAVTEQGHELSNEERNLLSVAYKNVVGARRSSWRVISSIEQKTERNEKKQQMGKEYREKIEAELQDICNDVLELLDKYLIPNATQPESKVFYLKMKGDYFRYLSEVASGDNKQTTVSNSQQAYQEAFEISKKEMQPTHPIRLGLALNFSVFYYEILNSPEKACSLAKTAFDEAIAELDTLNEESYKDSTLIMQLLRDNLTLWTSENQGDEGDAGEGENELGAAAGGSGGALKGEIKQRLKLKDGGHYDAEVKTTYKAKKPVQLPGAYNVNIKLDITSHNEDYTIVEQYERAEGRHSTGGMDELYKHHHHHH
notes: also called 14-3-3 isoform β

- binding result: no binding
B2: human 14-3-3σ fused to C-terminal split mCherry (C-mCh) with C-terminal 6xHis tag (other)
chain: MERASLIQKAKLAEQAERYEDMAAFMKGAVEKGEELSCEERNLLSVAYKNVVGGQRAAWRVLSSIEQKSNEEGSEEKGPEVREYREKVETELQGVCDTVLGLLDSHLIKEAGDAESRVFYLKMKGDYYRYLAEVATGDDKKRIIDSARSAYQEAMDISKKEMPPTNPIRLGLALNFSVFHYEIANSPEEAISLAKTTFDEAMADLHTLSEDSYKDSTLIMQLLRDNLTLWTADNAGEEGGEAPQEPQSELGAAAGGSGGALKGEIKQRLKLKDGGHYDAEVKTTYKAKKPVQLPGAYNVNIKLDITSHNEDYTIVEQYERAEGRHSTGGMDELYKHHHHHH
notes: also called 14-3-3 isoform σ
